Results reported in paper PMC4514675, “Novel Apo E-Derived ABCA1 Agonist Peptide (CS-6253) Promotes Reverse Cholesterol Transport and Induces Formation of preβ-1 HDL In Vitro” (PLoS ONE, 2015).

Biological target: ABCA1 (Homo sapiens, UniProt O95477)
Assay: Chemical cross-linking of ABCA1, dimer:monomer ratio (SDS-PAGE)
Format: cell-based
Design: expressed in transfected cells; host or cells: BHK cells, stably transfected, induced with 10 nM mifepristone
Procedure: Supplementary file pone.0131997.s004.tif: S3 Fig Chemical cross-linking of ABCA1 in intact BHK cells expressing ABCA1. BHK cells in 100-mm diameter dishes were stimulated with 10 nM mifepristone for 18–20 h. BHK cells expressing ABCA1 (100 μg of total protein) in the presence of apo A-I or CS-6253 at same molarity (0.96 μM) were cross-linked or not with 500 μM DSP. Cells were then lysed at 4°C with lysis buffer containing 0.5% n-dodecylmaltoside in the presence of a protease inhibitor mixture followed by low speed centrifugation to remove cell debris. The supernatants were treated or not with 50 mM DTT for 30 min at 37°C and then separated by SDS-PAGE (4–22.5%) in duplicate. After electrophoresis, ABCA1 was detected by an anti-ABCA1 antibody. GAPDH was used as loading control. (TIF) Click here for additional data file. […]

Chain of ABCA1 (O95477 whole entry): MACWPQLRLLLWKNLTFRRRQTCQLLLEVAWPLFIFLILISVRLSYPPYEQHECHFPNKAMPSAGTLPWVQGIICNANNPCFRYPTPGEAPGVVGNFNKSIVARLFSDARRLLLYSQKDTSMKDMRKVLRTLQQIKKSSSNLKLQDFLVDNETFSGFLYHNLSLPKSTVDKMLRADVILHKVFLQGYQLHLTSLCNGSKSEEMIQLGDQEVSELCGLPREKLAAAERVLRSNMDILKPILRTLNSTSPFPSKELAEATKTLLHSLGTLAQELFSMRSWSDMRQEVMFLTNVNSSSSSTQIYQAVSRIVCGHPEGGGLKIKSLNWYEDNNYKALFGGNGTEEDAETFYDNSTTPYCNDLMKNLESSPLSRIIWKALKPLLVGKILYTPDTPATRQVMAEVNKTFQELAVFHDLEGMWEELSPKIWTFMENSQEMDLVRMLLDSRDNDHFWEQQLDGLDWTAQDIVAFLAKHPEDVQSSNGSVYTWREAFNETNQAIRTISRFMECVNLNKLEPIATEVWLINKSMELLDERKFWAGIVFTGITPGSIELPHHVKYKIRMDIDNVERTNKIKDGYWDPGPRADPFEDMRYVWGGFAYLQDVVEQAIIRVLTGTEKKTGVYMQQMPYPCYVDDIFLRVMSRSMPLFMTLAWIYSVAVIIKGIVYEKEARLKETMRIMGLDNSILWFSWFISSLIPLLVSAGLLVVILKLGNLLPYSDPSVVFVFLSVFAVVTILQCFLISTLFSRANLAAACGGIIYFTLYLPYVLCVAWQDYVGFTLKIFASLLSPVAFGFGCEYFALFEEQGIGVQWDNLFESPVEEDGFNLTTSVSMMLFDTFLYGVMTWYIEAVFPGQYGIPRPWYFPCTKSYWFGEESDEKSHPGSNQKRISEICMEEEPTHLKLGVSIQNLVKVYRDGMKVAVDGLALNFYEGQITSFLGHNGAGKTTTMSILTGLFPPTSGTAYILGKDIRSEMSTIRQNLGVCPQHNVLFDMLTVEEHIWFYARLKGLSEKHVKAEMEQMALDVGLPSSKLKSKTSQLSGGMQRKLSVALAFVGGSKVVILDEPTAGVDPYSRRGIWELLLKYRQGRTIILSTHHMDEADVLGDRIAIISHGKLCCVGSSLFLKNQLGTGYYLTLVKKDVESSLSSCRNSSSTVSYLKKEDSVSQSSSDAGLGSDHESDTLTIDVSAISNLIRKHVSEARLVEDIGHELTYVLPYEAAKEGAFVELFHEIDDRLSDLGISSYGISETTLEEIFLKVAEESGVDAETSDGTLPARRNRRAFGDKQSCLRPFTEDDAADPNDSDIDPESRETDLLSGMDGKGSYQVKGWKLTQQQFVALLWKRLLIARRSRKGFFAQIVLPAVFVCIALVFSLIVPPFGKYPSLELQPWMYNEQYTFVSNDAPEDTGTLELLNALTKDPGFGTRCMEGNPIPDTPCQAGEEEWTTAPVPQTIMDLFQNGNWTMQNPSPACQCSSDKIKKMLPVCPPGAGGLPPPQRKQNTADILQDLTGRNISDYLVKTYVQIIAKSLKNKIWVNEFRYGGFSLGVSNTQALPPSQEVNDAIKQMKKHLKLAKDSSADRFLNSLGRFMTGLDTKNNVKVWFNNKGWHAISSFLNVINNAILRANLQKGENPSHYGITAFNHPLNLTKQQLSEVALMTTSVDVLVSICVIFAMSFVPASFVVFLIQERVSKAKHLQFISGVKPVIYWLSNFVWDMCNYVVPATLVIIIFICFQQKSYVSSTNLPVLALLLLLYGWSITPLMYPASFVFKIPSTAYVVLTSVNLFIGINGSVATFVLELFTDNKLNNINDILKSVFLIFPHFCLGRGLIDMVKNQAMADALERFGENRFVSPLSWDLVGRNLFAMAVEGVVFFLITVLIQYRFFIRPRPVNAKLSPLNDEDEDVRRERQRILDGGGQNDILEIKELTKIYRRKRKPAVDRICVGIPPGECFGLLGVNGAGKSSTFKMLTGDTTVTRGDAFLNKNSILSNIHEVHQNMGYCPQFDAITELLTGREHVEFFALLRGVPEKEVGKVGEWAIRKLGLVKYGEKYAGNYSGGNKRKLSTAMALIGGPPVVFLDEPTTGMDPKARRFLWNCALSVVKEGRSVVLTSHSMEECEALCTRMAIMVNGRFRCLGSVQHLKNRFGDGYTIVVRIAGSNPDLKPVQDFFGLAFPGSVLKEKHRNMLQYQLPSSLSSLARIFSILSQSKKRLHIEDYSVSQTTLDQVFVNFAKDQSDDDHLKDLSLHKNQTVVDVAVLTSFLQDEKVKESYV

- effect on ABCA1 oligomerization (in words) (BHK-ABCA1, DSP cross-linking): causes ABCA1 dimer formation
Substance: apolipoprotein A-I [apo A-I]
- ratio of ABCA1 dimer: monomer (0.93 μM (appendix) / 0.96 μM (S3 Fig), DSP 500 μM, densitometry): 69.22%±0.25
